Assay results published in article PMC5037986.

Biological target: recombinant mature human CD73 (soluble CD73, GPI anchor signal peptide replaced by a C-terminal 6x-histidine tag) (human)
Experiment: SEC-MALS

## recombinant mature human CD73 (soluble CD73, GPI anchor signal peptide replaced by a C-terminal 6x-histidine tag) (enzyme)
  stoichiometry N: 2
